As usually defined, the Kd is the constant that tells how readily two partners part at equilibrium. Lower therefore signals higher affinity.

This assay addresses Aβ(βアミロイドペプチド) (UniProt P05067). Nature of the assay: BIAcore. (In general: Surface plasmon resonance follows binding to a sensor surface in real time, without labels.)
Sequence of UniProt P05067 (P05067 672-713 limits assumed): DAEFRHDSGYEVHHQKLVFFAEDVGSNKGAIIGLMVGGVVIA

In turn, マウスモノクローナル抗体3D6 (antibody) returned a dissociation constant (Kd) of 0.88 nM.
